Test results taken from the supplement of paper PMC12764529.
± gives the half width of the 95% confidence interval.

What was measured:
[1] = folding stability dG unfold from chymotrypsin proteolysis; higher = more stable
Procedure, shortened: (§1)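 Unfolding free energy was derived, per protease or combined, by relating Bayesian-fitted K50 values from sequencing counts to a sequence-predicted unfolded-state K50 and a shared folded-state K50. The underlying digests exposed cysteine-free mini-proteins under 80 residues, in a PA-tagged cDNA display construct, to trypsin and chymotrypsin at 11 threefold-diluted concentrations and to a no-protease condition. A filter kept only designs with AlphaFold2 dimer inter-PAE above 15.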

[2] = folding stability dG unfold from trypsin proteolysis; higher = more stable
Procedure, shortened: as §1

[3] = folding stability dG unfold (combined trypsin and chymotrypsin); higher = more stable
Procedure, shortened: as §1

| Sequence | folding stability dG unfold [1] | folding stability dG unfold [2] | folding stability dG unfold [3] |
| --- | --- | --- | --- |
| SAGKKKKIKVKIEIRVKKKYKTKDGKEVEEKEETITVEIEMTLEELKEAIKKLPENVEITKITKIEKESAGG [r19_114_TrROS_Hall] | 2.42 ± 0.058 kcal/mol | 1.58 ± 0.11 kcal/mol | 2.26 ± 0.16 kcal/mol |
| SAGKKKKKPKVKEVIIVVKVENMTAEEIAKKLAEELNVEVTKVEVKDGYVTITLKDGSKIKIEVIPEEKSAG [r5_350_TrROS_Hall] | 1.76 ± 0.069 kcal/mol | 1.35 ± 0.11 kcal/mol | 1.58 ± 0.15 kcal/mol |
| SAGKKKTLTLTLGNVTITITYDEDTGTLRIKVTATVTTVTLDKDTKELTTEKKTVTTEIEIPLAPGATLSAG [r5_195_TrROS_Hall] | 2.79 ± 0.086 kcal/mol | 2.76 ± 0.18 kcal/mol | 2.67 ± 0.2 kcal/mol |
| SAGKKLIEAAKNNKKAVIPVKYKKYKITEKYKTKDGGTKYKAKLIEEKTYNVKLIKVDPKTGKIIIDPKSAG [r5_5_TrMRF] | 1.82 ± 0.28 kcal/mol | 1.07 ± 0.13 kcal/mol | 1.75 ± 0.92 kcal/mol |
| SAGKKLKITDPEYKYYPNEGMYWVTIPIRFPDGKPIFDIDYPMPPGQSWDQVREQAKDIARWLIEEGLISAG [r5_238_TrROS] | 1.93 ± 0.13 kcal/mol | 0.639 ± 0.059 kcal/mol | 1.52 ± 0.095 kcal/mol |
| SAGKKLLVVVEIRVFDKDGKLVREERLVIEVPEEDEEALRRLLEEARRLAEALLPPGARVEIRVRVLPPSAG [r5_793_TrROS_Hall] | 3.82 ± 0.11 kcal/mol | 2.98 ± 0.13 kcal/mol | 3.6 ± 0.15 kcal/mol |
| SAGKKTITVEIVVENLTEEEIEEKIREKLKEAGLKVEVVKVEIVKVEEVDGKKYLVVKVEIKIEPEEESAGG [r19_325_TrROS_Hall] | 2.87 ± 0.084 kcal/mol | 3.5 ± 0.18 kcal/mol | 3.06 ± 0.12 kcal/mol |
| SAGKKTITVPLKDLKKVLEELKKKYPNIKKVKIYVNGKEYEIKVGEKVKITEVIKNENGEEFVKIEIYKSAG [r5_130_TrROS_Hall] | 3.41 ± 0.082 kcal/mol | 2.97 ± 0.17 kcal/mol | 3.31 ± 0.22 kcal/mol |
| SAGKKTLIIRVKIRVRRKVDGKEEEVELELVIEVEAEEDEEEARRKAEELARKLAEEYNLEIEEVEIFPSAG [r5_497_TrROS_Hall] | 4.31 ± 0.074 kcal/mol | 4.18 ± 0.13 kcal/mol | 4.26 ± 0.11 kcal/mol |
| SAGKKYIVVVNVDFGSPEKKESAPIVLELDEDEEVSEALAKIPGLEDVKVEVYVIEAEENPELAENPGSAGG [r19_339_TrMRF] | 1.38 ± 0.083 kcal/mol | 0.31 ± 0.11 kcal/mol | 0.994 ± 0.2 kcal/mol |
| SAGKMKIIEVKPGEEIKITIPEEGKKVKIYVYNKNGEKVEEKEVEIKPGQTLTFKIPKEDAKVIIEIEDSAG [r5_797_TrROS_Hall] | 3.11 ± 0.039 kcal/mol | 1.75 ± 0.062 kcal/mol | 2.82 ± 0.18 kcal/mol |
| SAGKNWYIQIQIEHRDPDGKPKREIPIIIEANPGDPEAFERALEFAERIAEKLHPPGHRVEINVTLFPYSAG [r5_793_TrROS] | 2.17 ± 0.1 kcal/mol | 2.73 ± 0.23 kcal/mol | 2.43 ± 0.17 kcal/mol |
| SAGKPGEPIKLKIRYVDPDNGEPQTFEFPIKRIEDVEIDPPGNIIITFPGDGQEITFPPNHLTEVEILSAGG [r19_416_TrROS] | 0.36 ± 0.24 kcal/mol | -0.852 ± 0.73 kcal/mol | 0.0637 ± 0.18 kcal/mol |
| SAGKPIIVKVSVINEDGEEEEIAEFPIPPDLLKGSIEVGDGFIIAPDGEGPTFTAIIGDKPVKIEIEGSAGG [r19_408_TrMRF] | 1.52 ± 0.13 kcal/mol | 0.658 ± 0.058 kcal/mol | 1.27 ± 0.13 kcal/mol |
| SAGKPKELAKKIAEKLAKEFEKKHPDVKIEKVEVKKIEVNPIEGYVKIDIVMYGKNGKLIYKPKITIKSAGG [r19_53_TrMRF] | 3.96 ± 0.083 kcal/mol | 3.22 ± 0.27 kcal/mol | 3.63 ± 0.14 kcal/mol |
| SAGKPNIVVHPEYEQEKDPGDPGQPRIREMRVRVYLPNGRPITFRYRSPEDAVDRLLKRIQENPDLLKSAGG [r19_123_TrROS] | 2.11 ± 0.13 kcal/mol | 1.79 ± 0.12 kcal/mol | 2.07 ± 0.19 kcal/mol |
| SAGKPVLLKIEIEVKVNGKTVKLELEILVEPGETIEELLAALPGVEEVKIKIEPISLEELEELKKKKPSAGG [r19_339_TrROS_Hall] | 1.88 ± 0.059 kcal/mol | 0.867 ± 0.23 kcal/mol | 1.53 ± 0.3 kcal/mol |
| SAGKRTIMIPFNVKPNQIRNIAKDIVEMHPGWKIKSIKVFNPNNGEPQELPLGDVPPNEPVWIKVEIEPSAG [r5_357_TrROS] | 2.21 ± 0.05 kcal/mol | 2.36 ± 0.1 kcal/mol | 2.29 ± 0.15 kcal/mol |
| SAGKSVKLSISVNPDNNSITITLEVEFKPDEKINIPAKFYLKDKEFNANYSVTKTPDGKAIATFTIELDSAG [r5_596_TrMRF] | 4.57 ± 0.23 kcal/mol | 2.67 ± 0.27 kcal/mol | 3.63 ± 0.38 kcal/mol |
| SAGKVEIIPIENEDGSKFLVIKVNGKLIIITENEDGSISIKIIDLKTNKIEVIEIPKKDLKKALEKILKSAG [r5_674_TrROS_Hall] | 3.48 ± 0.12 kcal/mol | 3.82 ± 0.18 kcal/mol | 3.59 ± 0.2 kcal/mol |
| SAGKVIIIPAEKAEPELIKEILKKVPEGTEIRIAFAGPELVELLKELGFEVKPELVKPLTPEDLKKLLESAG [r5_354_TrMRF] | 1.92 ± 0.092 kcal/mol | 0.747 ± 0.062 kcal/mol | 1.59 ± 0.11 kcal/mol |

| Sequence | folding stability dG unfold [1] | folding stability dG unfold [2] | folding stability dG unfold [3] |
| --- | --- | --- | --- |
| SAGKVVKISAPIEVLRNIPNVLELYVVGDKVYLVVPNELLVVDLDLPPLVPTVPESVPEELALLGGLLGSAG [r5_2_TrMRF] | 1.74 ± 0.052 kcal/mol | 0.728 ± 0.051 kcal/mol | 1.48 ± 0.13 kcal/mol |
| SAGKVYRIKATAPDGSTAIIEIPENGNAKIKIFYPNGVKEITINLDPNVKIEEILEKFPNFIISSIEEESAG [r5_259_TrMRF] | 3.95 ± 0.22 kcal/mol | 5.01 ± 0.8 kcal/mol | 4.15 ± 0.22 kcal/mol |
| SAGKYVTFNFPINIPPGDIKQMLNMIRDIARNLGLKPITDIEIDNIQRDDDYYRIRFEITIKVPPGDLKSAG [r5_575_TrROS] | 4.29 ± 0.12 kcal/mol | 2.44 ± 0.18 kcal/mol | 3.34 ± 0.43 kcal/mol |
| SAGLEVEIVSVEYDEETNTVKVKVKVRNPETNEVTTLELTIKLPPPPPPVEKVEVKEVKDGKVTVTYEESAG [r5_150_TrROS_Hall] | 0.394 ± 0.13 kcal/mol | 1.43 ± 0.18 kcal/mol | 1.28 ± 0.48 kcal/mol |
| SAGLFITVEANPNNGTMRITLYRMEPRKDGDGPKMDIEPIAEIEVPMESPEEARDKAKDKAKNLLDKFNSAG [r5_956_TrROS] | 1.85 ± 0.14 kcal/mol | 1.06 ± 0.064 kcal/mol | 1.58 ± 0.11 kcal/mol |
| SAGLGIWRDPDMWKLEFNLLLPNGYVYKVEVTVTPDGIDVSIEPVPIPPVPTADSPEDAKEYQKQNENQSAG [r5_272_TrROS] | 2.61 ± 0.18 kcal/mol | 1.06 ± 0.13 kcal/mol | 2.06 ± 0.35 kcal/mol |
| SAGLRLVLELELEVPPDVPPERVREAVEREVRDILGRLGIPLPPDARIVVEEVERRGRRVRFRVEVDFPSAG [r14_735_TrMRF] | 5.08 ± 0.18 kcal/mol | 5.13 ± 0.32 kcal/mol | 5.01 ± 0.21 kcal/mol |
| SAGLSEIVKKLFPEEEIEIEVEERTLPGPPNIPVVEFDVRITFKDGRTFRARAIRYPDFVLIEVEPLEPSAG [r14_28_TrMRF] | 3.75 ± 0.065 kcal/mol | 3.26 ± 0.11 kcal/mol | 3.62 ± 0.11 kcal/mol |
| SAGLSPQVRDWLRDLFQEEGFKVKEIDVQPHPNGQMYIKINYPNGKPIKEIPVPPGMDTPEQALKMIRKSAG [r5_352_TrROS] | 0.498 ± 0.13 kcal/mol | -0.00734 ± 0.11 kcal/mol | 0.312 ± 0.07 kcal/mol |
| SAGLVVTKLPGDGTLRITLPPPGAPLVLTIPLDPGNGTLSVTVTRPDGRSETYTFPGGSIDEVIERLLSAGG [r19_159_JUSTAS] | 2.902 ± 0.021 kcal/mol | 2.37 ± 0.074 kcal/mol | 2.72 ± 0.093 kcal/mol |
| SAGMATTTELPNGFLTTYEDGTTSFIPAEPPEVPVTTVPVTSPEEAAAAVAAAGLSVEVVTADSVTAPASAG [r5_328_JUSTAS] | 1.2 ± 0.027 kcal/mol | 2.06 ± 0.091 kcal/mol | 1.63 ± 0.07 kcal/mol |
| SAGMDDAEAEKLALEEAEKIAKEAGVPEIEVEVERTPSDRWRATIKFPKTGKTYTIELVGDEPSLVEKGSAG [r14_925_JUSTAS] | 1.27 ± 0.2 kcal/mol | 1.01 ± 0.049 kcal/mol | 1.1 ± 0.14 kcal/mol |
| SAGMDIELVVPIESPGSPEEIEKTVEELKEKLEKLGYKVEVSREIHPVGDKLVATITIKITAPPDLPLLSAG [r5_217_JUSTAS] | 2.31 ± 0.095 kcal/mol | 3.49 ± 0.28 kcal/mol | 2.85 ± 0.16 kcal/mol |
| SAGMDIIKELLEKNPKPKVIRMHMNPPNGYFRIQVNGKPIDLPLPPGHYEMEFVVDPKGKIEDVKPHPMSAG [r5_329_TrROS] | 0.51 ± 0.16 kcal/mol | 0.0656 ± 0.15 kcal/mol | 0.462 ± 0.16 kcal/mol |
| SAGMDMEEAEKLAEEIAEQLAKELEKKTGIKPEKIKIEVTVTKLPDGSYLITIKATLEDKEVEKTYTIASAG [r14_226_JUSTAS] | 2.28 ± 0.066 kcal/mol | 3.11 ± 0.21 kcal/mol | 2.68 ± 0.12 kcal/mol |
| SAGMDPDDPDYMIFINLDIKLEVEPDPDNGKPYVKLEIRITNIMVFDPDNGKMEMEPIEIEMTLPPDDISAG [r5_270_TrROS] | 3.09 ± 0.17 kcal/mol | 1.3 ± 0.083 kcal/mol | 2.48 ± 0.3 kcal/mol |
| SAGMEEEVEERTLPDGSPVTVTTFTDPATGKRTVFVRYPETGEWEVRDEEGNLIKKYGPVSFEEAKKELSAG [r5_757_JUSTAS] | 2.04 ± 0.064 kcal/mol | 1.67 ± 0.024 kcal/mol | 1.97 ± 0.09 kcal/mol |
| SAGMEEKLVEAVFEEGPLEEAVEFIRDFLESEGYEVEPLEVEVLSVEETEEGPRVRVRARVLVRPPDASAGG [r19_325_TrMRF] | 1.52 ± 0.16 kcal/mol | 1.11 ± 0.081 kcal/mol | 1.34 ± 0.18 kcal/mol |
| SAGMEELAKELAEKLAEELPPGWKIVEIKVERLEDGTLRVRITIYRLDENGKLVEKREIEIEIPLEELSAGG [r19_28_TrROS_Hall] | 4.63 ± 0.081 kcal/mol | 3.91 ± 0.22 kcal/mol | 4.5 ± 0.15 kcal/mol |
| SAGMEEVEITIKITIEVPEGEEVTPEELAEALREAGFEIVEVKVEKTEDGRKRVTVEIKIRLTPEELEKSAG [r5_167_TrROS_Hall] | 2.02 ± 0.15 kcal/mol | 2.31 ± 0.2 kcal/mol | 2.23 ± 0.19 kcal/mol |
| SAGMEFPANTTVELTLTLTFPVPLPGEGTGPVTLTYTLRLEVRPKPRIPLPDPALRELLERLGLSPDLLSAG [r5_624_TrMRF] | 4.88 ± 0.13 kcal/mol | 3.88 ± 0.39 kcal/mol | 4.43 ± 0.4 kcal/mol |
